Source: paper PMC5595889

Biological target: mouse importin α1 lacking the N-terminal importin-β-binding domain (ΔIBB-importin α1) (mouse)
Assay: ITC

influenza NLS1 peptide (1-…-13)
Kd: 4.9 µM
